Results published in US20190282704A1.

Tests used:
[1] = biological target: canine IL-31 (Canine_IL31) (canine)
[2] = biological target: wildtype feline IL-31 (Feline_IL31_wildtype) (feline)
[3] = biological target: canine IL-31 (Canine_IL31) (canine); assay: cell-based or functional assay
[4] = biological target: wildtype feline IL-31 (Feline_IL31_wildtype) (feline); assay: cell-based or functional assay
[5] = biological target: canine IL-31 (Canine_IL31) (canine); assay: SPR (Biacore), immobilised IL-31, 1:1 fit
[6] = biological target: wildtype feline IL-31 (Feline_IL31_wildtype) (feline); assay: SPR (Biacore), immobilised IL-31, 1:1 fit
[7] = biological target: wildtype feline IL-31 (Feline_IL31_wildtype) (feline); assay: indirect ELISA, coated IL-31; note: test concentration or dose not given here
[8] = biological target: feline IL-31 15H05 mutant (Feline_IL31_15H05 mutant) (feline); assay: indirect ELISA, coated IL-31; note: test concentration or dose not given here
feline IL-31 15H05 mutant (Feline_IL31_15H05 mutant) (feline), sequence (chain, as listed by the source mutant limits assumed, form in doubt): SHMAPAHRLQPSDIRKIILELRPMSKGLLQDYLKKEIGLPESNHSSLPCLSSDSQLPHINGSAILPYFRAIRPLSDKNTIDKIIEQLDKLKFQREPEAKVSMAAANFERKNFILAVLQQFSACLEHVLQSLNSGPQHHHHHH

canine IL-31 (Canine_IL31) (canine), sequence (chain, as listed by the source limits assumed, form in doubt): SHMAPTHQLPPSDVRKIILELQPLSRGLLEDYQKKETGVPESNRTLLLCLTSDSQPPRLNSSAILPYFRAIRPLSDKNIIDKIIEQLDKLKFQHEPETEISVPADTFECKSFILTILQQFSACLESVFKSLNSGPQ
wildtype feline IL-31 (Feline_IL31_wildtype) (feline), sequence (chain, as listed by the source limits assumed, form in doubt): as the sequence (chain, as listed by the source mutant limits assumed, form in doubt) above, with A103P, A105D counted along it

| IC50, inhibition of canine IL-31-induced STAT3 phosphorylation, canine DH82 cells [1] [µg/mL] | IC50, inhibition of feline IL-31-induced STAT3 phosphorylation, feline FCWF4 cells [2] [µg/mL] | IC50 against canine IL-31 (pSTAT3; cell type not clear) [3] [µg/ml] | IC50, feline IL-31 signaling on the canine DH82 cell line (pSTAT3) [4] [µg/ml] | IC50, inhibition of feline IL-31-induced STAT3 phosphorylation, canine DH82 cells [2] [µg/mL] | IC50 against feline IL-31 induced pSTAT3 signaling in feline FCWF4 cells, against mouse: feline 11E12 chimera [4] [fold] | Kd [5] [nM] | koff [5] [s⁻¹] | kon [5] [M⁻¹ s⁻¹] | potency against feline IL-31 in the feline FCWF assay, against the mouse version [4] [fold] | Kd [6] [nM] | koff [6] [s⁻¹] | kon [6] [M⁻¹ s⁻¹] | IC50, inhibition of canine IL-31-induced STAT3 phosphorylation, feline FCWF4 cells [1] [µg/mL] | Binding (ELISA OD) [7] [OD] | Binding (ELISA OD) [8] [OD] | Binder |
| --- | --- | --- | --- | --- | --- | --- | --- | --- | --- | --- | --- | --- | --- | --- | --- | --- |
|  | 3.25 | 28.6 |  | 5.59 | 2 | 0.0129 | 1.62e-07 | 12600 |  |  |  |  |  |  |  | mouse: feline 15H05 chimera (antibody) heavy: QVQLQQSAAELARPGASVKMSCKTSGYTFTSYTIHWIKQRPGQGLEWIGNINPTSGYTENNQRFKDKTTLTVDRSSNTAYLQLHSLTSEDSAVYFCARWGFKYDGEWSFDVWGAGTTVTVSSASTTAPSVFPLAPSCGTTSGATVALACLVLGYFPEPVTVSWNSGALTSGVHTFPAVLQASGLYSLSSMVTVPSSRWLSDTFTCNVAHPPSNTKVDKTVRKTDHPPGPKPCDCPKCPPPEAAGAPSIFIFPPKPKDTLSISRTPEVTCLVVDLGPDDSDVQITWFVDNTQVYTAKTSPREEQFNSTYRVVSVLPILHQDWLKGKEFKCKVNSKSLPSPIERTISKAKGQPHEPQVYVLPPAQEELSRNKVSVTCLIKSFHPPDIAVEWEITGQPEPENNYRTTPPQLDSDGTYFVYSKLSVDRSHWQRGNTYTCSVSHEALHSHHTQKSLTQSPGK light: DIQMNQSPSSLSASLGDTITVTCRASQGISIWLSWYQQKPGNIPKVLINKASNLHIGVPPRFSGSGSGTHFTLTITSLQPEDIATYYCLQSQTYPLTFGGGTKLEINRSDAQPSVFLFQPSLDELHTGSASIVCILNDFYPKEVNVKWKVDGVVQNKGIQESTTEQNSKDSTYSLSSTLTMSSTEYQSHEKFSCEVTHKSLASTLVKSFQRSECQRE |
| 11.2 | 4.26 |  |  | 2.7 |  | 0.00487 | 6.56e-07 | 135000 |  | 0.348 | 1.69e-05 | 48400 | 25.7 | 1.94 | 0.05 | mouse anti IL-31 antibody 15H05 (antibody, V domains shown) VH: QVQLQQSAAELARPGASVKMSCKTSGYTFTSYTIHWIKQRPGQGLEWIGNINPTSGYTENNQRFKDKTTLTVDRSSNTAYLQLHSLTSEDSAVYFCARWGFKYDGEWSFDVWGAGTTVTVSS VL: DIQMNQSPSSLSASLGDTITVTCRASQGISIWLSWYQQKPGNIPKVLINKASNLHIGVPPRFSGSGSGTHFTLTITSLQPEDIATYYCLQSQTYPLTFGGGTKLEIN |
|  | 2.01 |  |  | 2.47 |  | 0.000763 | 4.8e-07 | 629000 |  | 0.738 | 0.000123 | 167000 |  | 1.15 | 1.33 | mouse anti IL-31 antibody 11E12 (antibody, V domains shown) VH: QVQLQQSGAELVKPGASVKLSCKASGYTFKYYDINWVRQRPEQGLEWIGWIFPGDGGTKYNETFKGKATLTTDKSSSTAYMQLSRLTSEDSAVYFCARGGTSVIRDAMDYWGQGTSVTVSS VL: DIVLTQSPASLAVSLGQRATISCRASESVDNYGISFMHWYQQKPGQPPKLLIYRASNLESGIPARFSGSGSRTDFTLTINPVETDDVATYYCQQSNKDPLTFGAGTKLELK |

More lines, now with the values behind:

| Binder | IC50, inhibition of canine IL-31-induced STAT3 phosphorylation, canine DH82 cells [1] [µg/mL] | IC50, inhibition of feline IL-31-induced STAT3 phosphorylation, feline FCWF4 cells [2] [µg/mL] | IC50 against canine IL-31 (pSTAT3; cell type not clear) [3] [µg/ml] | IC50, feline IL-31 signaling on the canine DH82 cell line (pSTAT3) [4] [µg/ml] | IC50, inhibition of feline IL-31-induced STAT3 phosphorylation, canine DH82 cells [2] [µg/mL] | IC50 against feline IL-31 induced pSTAT3 signaling in feline FCWF4 cells, against mouse: feline 11E12 chimera [4] [fold] | Kd [5] [nM] | koff [5] [s⁻¹] | kon [5] [M⁻¹ s⁻¹] | potency against feline IL-31 in the feline FCWF assay, against the mouse version [4] [fold] | Kd [6] [nM] | koff [6] [s⁻¹] | kon [6] [M⁻¹ s⁻¹] | IC50, inhibition of canine IL-31-induced STAT3 phosphorylation, feline FCWF4 cells [1] [µg/mL] | Binding (ELISA OD) [7] [OD] | Binding (ELISA OD) [8] [OD] |
| --- | --- | --- | --- | --- | --- | --- | --- | --- | --- | --- | --- | --- | --- | --- | --- | --- |
| 15H05 mouse: canine chimera (antibody) heavy: QVQLQQSAAELARPGASVKMSCKTSGYTFTSYTIHWIKQRPGQGLEWIGNINPTSGYTENNQRFKDKTTLTVDRSSNTAYLQLHSLTSEDSAVYFCARWGFKYDGEWSFDVWGAGTTVTVSSASTTAPSVFPLAPSCGSTSGSTVALACLVSGYFPEPVTVSWNSGSLTSGVHTFPSVLQSSGLYSLSSMVTVPSSRWPSETFTCNVAHPASKTKVDKPVPKRENGRVPRPPDCPKCPAPEMLGGPSVFIFPPKPKDTLLIARTPEVTCVVVDLDPEDPEVQISWFVDGKQMQTAKTQPREEQFNGTYRVVSVLPIGHQDWLKGKQFTCKVNNKALPSPIERTISKARGQAHQPSVYVLPPSREELSKNTVSLTCLIKDFFPPDIDVEWQSNGQQEPESKYRTTPPQLDEDGSYFLYSKLSVDKSRWQRGDTFICAVMHEALHNHYTQESLSHSPGK light: DIQMNQSPSSLSASLGDTITVTCRASQGISIWLSWYQQKPGNIPKVLINKASNLHIGVPPRFSGSGSGTHFTLTITSLQPEDIATYYCLQSQTYPLTFGGGTKLEINRNDAQPAVYLFQPSPDQLHTGSASVVCLLNSFYPKDINVKWKVDGVIQDTGIQESVTEQDKDSTYSLSSTLTMSSTEYLSHELYSCEITHKSLPSTLIKSFQRSEC | 12.7 | 3.11 | 12.5 | 0.71 |  |  |  |  |  |  |  |  |  |  |  |  |
| Feline 11E12 1.1 (antibody, V domains shown) VH: QVLLVQSGAEVKKPGASVKIFCKASGYSFTYYDINWLRQAPEQGLEWMGWIFPGDGGTKYNETFKGRLTLTADTSTNTVYMELSSLRSADTAMYYCARGGTSVIRDAMDYWGQGALVTVSS VL: EIQMTQSPSSLSASPGDRVTITCRASESVDNYGISFMHWYQQKPGKVPKLLIYRASNLESGVPSRFSGSGSGTDFTLTISSLEPEDAATYYCQQSNKDPLTFGQGT |  |  |  |  |  |  | 0.764 | 0.000141 | 185000 | 2 | 22.2 | 0.000444 | 20000 |  |  |  |
